Results from paper PMC8601601.

Columns and labels:
[1] = target: human ACE2 with a C-terminal FLAG tag, on transduced HeLa cells (human) (UniProt Q9BYF1); assay: flow cytometry on cells
[2] = target: mink ACE2 with a C-terminal FLAG tag, on transduced HeLa cells (mink (Neovison vison)); assay: flow cytometry on cells

## WT S1 domain of SARS-CoV-2 spike C-terminally fused with a His tag (domain or fragment)
[1]
  percent of ACE2-expressing cells positive for S1-Fc: 86.5%
[2]
  percent of ACE2-expressing cells positive for S1-Fc: 1.2%
